Positions of bridges follow the written chain, without caps; N, C: chain ends. Non-standard residues stand in square brackets, D forms with d. *: point of attachment. Pyrrolidide = C1CCN(*)C1; dNMeA = CN[C@H](C)C(=O)O
T1: full-length human Regnase-1 with a FLAG tag on the N-terminal side and a biotin ligase BirA recognition … (human, UniProt Q5D1E8 1-599, biotinylated at the BirA recognition sequence when required)
T1 sequence: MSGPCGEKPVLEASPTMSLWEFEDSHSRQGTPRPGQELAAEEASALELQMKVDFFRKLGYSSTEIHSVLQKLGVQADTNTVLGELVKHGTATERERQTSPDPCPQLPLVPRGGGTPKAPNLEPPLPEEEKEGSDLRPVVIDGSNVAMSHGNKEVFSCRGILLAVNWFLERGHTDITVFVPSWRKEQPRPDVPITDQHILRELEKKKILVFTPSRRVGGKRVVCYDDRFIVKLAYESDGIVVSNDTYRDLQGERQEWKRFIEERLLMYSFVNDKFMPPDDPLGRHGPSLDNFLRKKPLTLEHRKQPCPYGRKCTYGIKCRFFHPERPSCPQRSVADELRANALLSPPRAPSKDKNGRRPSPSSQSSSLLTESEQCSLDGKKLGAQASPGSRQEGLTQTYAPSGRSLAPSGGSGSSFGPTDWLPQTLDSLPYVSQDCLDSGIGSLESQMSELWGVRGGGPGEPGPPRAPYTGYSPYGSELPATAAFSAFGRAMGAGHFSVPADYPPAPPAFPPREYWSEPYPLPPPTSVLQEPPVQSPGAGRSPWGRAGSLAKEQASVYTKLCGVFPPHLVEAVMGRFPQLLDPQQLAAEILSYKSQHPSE

T2: C-terminal domain-deleted human Regnase-1 (amino acids 1 to 546) with N-terminal FLAG tag and C-terminal BirA … (human, UniProt Q5D1E8 1-546)
T2 sequence: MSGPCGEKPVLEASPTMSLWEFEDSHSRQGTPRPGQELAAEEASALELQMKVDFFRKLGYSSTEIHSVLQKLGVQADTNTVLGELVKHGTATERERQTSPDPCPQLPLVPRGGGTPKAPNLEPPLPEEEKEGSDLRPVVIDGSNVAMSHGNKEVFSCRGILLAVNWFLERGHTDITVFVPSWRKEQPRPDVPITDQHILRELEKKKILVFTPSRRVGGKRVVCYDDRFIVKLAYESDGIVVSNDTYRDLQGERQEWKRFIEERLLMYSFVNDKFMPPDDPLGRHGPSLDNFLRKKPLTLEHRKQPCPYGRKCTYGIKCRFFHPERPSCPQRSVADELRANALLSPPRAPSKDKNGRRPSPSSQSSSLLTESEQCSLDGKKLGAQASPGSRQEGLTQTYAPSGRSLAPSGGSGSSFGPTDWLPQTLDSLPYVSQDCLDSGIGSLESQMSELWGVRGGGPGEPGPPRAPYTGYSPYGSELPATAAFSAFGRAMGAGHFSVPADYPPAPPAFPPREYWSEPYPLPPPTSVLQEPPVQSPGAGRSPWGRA

T3: C-terminal human Regnase-1 (amino acids 301 to 599) with N-terminal FLAG tag and C-terminal BirA recognition … (human, UniProt Q5D1E8 301-599)
T3 sequence: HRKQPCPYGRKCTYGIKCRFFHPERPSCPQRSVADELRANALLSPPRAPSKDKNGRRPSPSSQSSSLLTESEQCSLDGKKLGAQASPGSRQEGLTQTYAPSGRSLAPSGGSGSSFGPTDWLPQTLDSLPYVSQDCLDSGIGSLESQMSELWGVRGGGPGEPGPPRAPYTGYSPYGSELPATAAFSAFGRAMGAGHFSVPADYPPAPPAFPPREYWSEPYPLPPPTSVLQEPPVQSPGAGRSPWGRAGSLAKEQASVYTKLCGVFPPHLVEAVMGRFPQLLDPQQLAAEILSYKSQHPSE

B1: PP11 (peptide)
peptide: XKFAQFRWIYPD
HELM: PEPTIDE1{[meA].K.F.A.Q.F.R.W.I.Y.P.D.[C1CCN([*:1])C1]}$PEPTIDE1,PEPTIDE1,1:R1-12:R3$$$V2.0
SMILES: CC[C@H](C)[C@@H]1NC(=O)[C@H](Cc2c[nH]c3ccccc23)NC(=O)[C@H](CCCNC(=N)N)NC(=O)[C@H](Cc2ccccc2)NC(=O)[C@H](CCC(N)=O)NC(=O)[C@H](C)NC(=O)[C@H](Cc2ccccc2)NC(=O)[C@H](CCCCN)NC(=O)[C@H](C)N(C)C(=O)C[C@@H](C(=O)N2CCCC2)NC(=O)[C@@H]2CCCN2C(=O)[C@H](Cc2ccc(O)cc2)NC1=O
B2: PP7 (peptide)
peptide: XNFNSAYYRAIWD
HELM: PEPTIDE1{[meA].N.F.N.S.A.Y.Y.R.A.I.W.D.[C1CCN([*:1])C1]}$PEPTIDE1,PEPTIDE1,1:R1-13:R3$$$V2.0
SMILES: CC[C@H](C)[C@@H]1NC(=O)[C@H](C)NC(=O)[C@H](CCCNC(=N)N)NC(=O)[C@H](Cc2ccc(O)cc2)NC(=O)[C@H](Cc2ccc(O)cc2)NC(=O)[C@H](C)NC(=O)[C@H](CO)NC(=O)[C@H](CC(N)=O)NC(=O)[C@H](Cc2ccccc2)NC(=O)[C@H](CC(N)=O)NC(=O)[C@H](C)N(C)C(=O)C[C@@H](C(=O)N2CCCC2)NC(=O)[C@H](Cc2c[nH]c3ccccc23)NC1=O
B3: PP13 (peptide)
peptide: XRFRQWKWVYPD
HELM: PEPTIDE1{[meA].R.F.R.Q.W.K.W.V.Y.P.D.[C1CCN([*:1])C1]}$PEPTIDE1,PEPTIDE1,1:R1-12:R3$$$V2.0
SMILES: CC(C)[C@@H]1NC(=O)[C@H](Cc2c[nH]c3ccccc23)NC(=O)[C@H](CCCCN)NC(=O)[C@H](Cc2c[nH]c3ccccc23)NC(=O)[C@H](CCC(N)=O)NC(=O)[C@H](CCCNC(=N)N)NC(=O)[C@H](Cc2ccccc2)NC(=O)[C@H](CCCNC(=N)N)NC(=O)[C@H](C)N(C)C(=O)C[C@@H](C(=O)N2CCCC2)NC(=O)[C@@H]2CCCN2C(=O)[C@H](Cc2ccc(O)cc2)NC1=O
B4: PP10 (peptide)
peptide: XNYQSWYYRSIWD
HELM: PEPTIDE1{[meA].N.Y.Q.S.W.Y.Y.R.S.I.W.D.[C1CCN([*:1])C1]}$PEPTIDE1,PEPTIDE1,1:R1-13:R3$$$V2.0
SMILES: CC[C@H](C)[C@@H]1NC(=O)[C@H](CO)NC(=O)[C@H](CCCNC(=N)N)NC(=O)[C@H](Cc2ccc(O)cc2)NC(=O)[C@H](Cc2ccc(O)cc2)NC(=O)[C@H](Cc2c[nH]c3ccccc23)NC(=O)[C@H](CO)NC(=O)[C@H](CCC(N)=O)NC(=O)[C@H](Cc2ccc(O)cc2)NC(=O)[C@H](CC(N)=O)NC(=O)[C@H](C)N(C)C(=O)C[C@@H](C(=O)N2CCCC2)NC(=O)[C@H](Cc2c[nH]c3ccccc23)NC1=O
B5: PP12 (peptide)
peptide: XRYAVYQWIYPD
HELM: PEPTIDE1{[meA].R.Y.A.V.Y.Q.W.I.Y.P.D.[C1CCN([*:1])C1]}$PEPTIDE1,PEPTIDE1,1:R1-12:R3$$$V2.0
SMILES: CC[C@H](C)[C@@H]1NC(=O)[C@H](Cc2c[nH]c3ccccc23)NC(=O)[C@H](CCC(N)=O)NC(=O)[C@H](Cc2ccc(O)cc2)NC(=O)[C@H](C(C)C)NC(=O)[C@H](C)NC(=O)[C@H](Cc2ccc(O)cc2)NC(=O)[C@H](CCCNC(=N)N)NC(=O)[C@H](C)N(C)C(=O)C[C@@H](C(=O)N2CCCC2)NC(=O)[C@@H]2CCCN2C(=O)[C@H](Cc2ccc(O)cc2)NC1=O
B6: PP8 (peptide)
peptide: XSKYWNSWYNIWD
HELM: PEPTIDE1{[C[C@H](C(=O)[*:2])N(C)[*:1]].S.K.Y.W.N.S.W.Y.N.I.W.D.[C1CCN([*:1])C1]}$PEPTIDE1,PEPTIDE1,1:R1-13:R3$$$V2.0
SMILES: CC[C@H](C)[C@@H]1NC(=O)[C@H](CC(N)=O)NC(=O)[C@H](Cc2ccc(O)cc2)NC(=O)[C@H](Cc2c[nH]c3ccccc23)NC(=O)[C@H](CO)NC(=O)[C@H](CC(N)=O)NC(=O)[C@H](Cc2c[nH]c3ccccc23)NC(=O)[C@H](Cc2ccc(O)cc2)NC(=O)[C@H](CCCCN)NC(=O)[C@H](CO)NC(=O)[C@@H](C)N(C)C(=O)C[C@@H](C(=O)N2CCCC2)NC(=O)[C@H](Cc2c[nH]c3ccccc23)NC1=O

Legend:
Experiment in all cases: cell-based or functional assay
[1] = target: T1, full-length human Regnase-1 with a FLAG …
[2] = target: T2, C-terminal domain-deleted human …
[3] = target: T3, C-terminal human Regnase-1 (amino acids …)
[4] = target: T1, full-length human Regnase-1 with a FLAG …; remark: listed apart in the source
[5] = target: T2, C-terminal domain-deleted human …; remark: listed apart in the source
[6] = target: T3, C-terminal human Regnase-1 (amino acids …); remark: listed apart in the source

Binder | 50% inhibition concentration, Regnase-1 phosphorylation by TBK1 (AlphaScreen) [1] [µM] | 50% inhibition concentration, Regnase-1 phosphorylation by TBK1 (AlphaScreen) [2] [µM] | 50% inhibition concentration, Regnase-1 phosphorylation by TBK1 (AlphaScreen) [3] [µM] | 50% inhibition concentration, Regnase-1 phosphorylation by IKKβ (AlphaScreen) [4] [µM] | 50% inhibition concentration, Regnase-1 phosphorylation by IKKβ (AlphaScreen) [5] [µM] | 50% inhibition concentration, Regnase-1 phosphorylation by IKKβ (AlphaScreen) [6] [µM]
[dNMeA]TYGHSSWYKIWD-Pyrrolidide (lactam N-13) [PP9] | 4.2 | 6.6 | 7.9 | 2.7 | 6.4 | 6.2
B1 | 29.1 | 55.6 | > 62.1 | 22.3 | > 62.1 | > 62.1
B2 | 2.2 | 4.7 | 4.6 | 0.8 | 4.5 | 3
B3 | 8.4 | 17.7 | 18 | 3.6 | 43.2 | 23.2
B4 | 0.2 | 0.2 | 0.4 | 0.5 | 2.6 | 1.8
B5 | 12.7 | 22.5 | 19.6 | 6.8 | 27 | 20.7
B6 | 2.9 | 5.5 | 6 | 1.4 | 7.8 | 5.7

— patent US20250018014A1, “METHOD FOR TREATING AND/OR PREVENTING REGNASE-1-RELATED DISEASE” (OSAKA UNIVERSITY, priority 2018, published 2025)
